Measured values published in PMC11535546.

Target: VASP (UniProt P50552)
Experiment: co-immunoprecipitation, immunoblot
Details: reference: wild-type Zyxin; sites S142,S143

binding against the reference: lost
Substance: Zyxin (from UniProt Q15942) Zyxin S142A/S143A
